# Reference: article PMC6826206
# Test system: hcGAScat-WT (human)
# Assay: fluorescence anisotropy
# Conditions: reference; EMSA: 25 mM Tris-HCl pH 7.5, 1 mM DTT, 100 ug/ml BSA, 1 mM MgCl2, 45 mM KCl, 37 C 10 min, 7% PAGE in TAE at 4 C; FA: 5-10 nM FAM-dsDNA, Hill fit, buffer not …
substance,measurement,value
dsDNA24,binding signal (relative to WT),1
